From PMC9371972, “Cryo-EM structure of the human CST–Polα/primase complex in a recruitment state” (Nature Structural & Molecular Biology, 2022) come the findings set out here.

Sequences and labels used below:
B2: CTC1 (subunit of the CST complex) (natural protein, human)
chain: MAAGRAQVPSSEQAWLEDAQVFIQKTLCPAVKEPNVQLTPLVIDCVKTVWLSQGRNQGSTLPLSYSFVSVQDLKTHQRLPCCSHLSWSSSAYQAWAQEAGPNGNPLPREQLLLLGTLTDLSADLEQECRNGSLYVRDNTGVLSCELIDLDLSWLGHLFLFPRWSYLPPARWNSSGEGHLELWDAPVPVFPLTISPGPVTPIPVLYPESASCLLRLRNKLRGVQRNLAGSLVRLSALVKSKQKAYFILSLGRSHPAVTHVSIIVQVPAQLVWHRALRPGTAYVLTELRVSKIRGQRQHVWMTSQSSRLLLLKPECVQELELELEGPLLEADPKPLPMPSNSEDKKDPESLVRYSRLLSYSGAVTGVLNEPAGLYELDGQLGLCLAYQQFRGLRRVMRPGVCLQLQDVHLLQSVGGGTRRPVLAPCLRGAVLLQSFSRQKPGAHSSRQAYGASLYEQLVWERQLGLPLYLWATKALEELACKLCPHVLRHHQFLQHSSPGSPSLGLQLLAPTLDLLAPPGSPVRNAHNEILEEPHHCPLQKYTRLQTPSSFPTLATLKEEGQRKAWASFDPKALLPLPEASYLPSCQLNRRLAWSWLCLLPSAFCPAQVLLGVLVASSHKGCLQLRDQSGSLPCLLLAKHSQPLSDPRLIGCLVRAERFQLIVERDVRSSFPSWKELSMPGFIQKQQARVYVQFFLADALILPVPRPCLHSATPSTPQTDPTGPEGPHLGQSRLFLLCHKEALMKRNFCVPPGASPEVPKPALSFYVLGSWLGGTQRKEGTGWGLPEPQGNDDNDQKVHLIFFGSSVRWFEFLHPGQVYRLIAPGPATPMLFEKDGSSCISRRPLELAGCASCLTVQDNWTLELESSQDIQDVLDANKSLPESSLTDLLSDNFTDSLVSFSAEILSRTLCEPLVASLWMKLGNTGAMRRCVKLTVALETAECEFPPHLDVYIEDPHLPPSLGLLPGARVHFSQLEKRVSRSHNVYCCFRSSTYVQVLSFPPETTISIPLPHIYLAELLQGGQSPFQATASCHIVSVFSLQLFWVCAYCTSICRQGKCTRLGSTCPTQTAISQAIIRLLVEDGTAEAVVTCRNHHVAAALGLCPREWASLLDFVQVPGRVVLQFAGPGAQLESSARVDEPMTMFLWTLCTSPSVLRPIVLSFELERKPSKIVPLEPPRLQRFQCGELPFLTHVNPRLRLSCLSIRESEYSSSLGILASSC
notes: human CTC1; the CTC1 chain of m1; Always present with STN1 and TEN1; written alone for subunit-to-subunit contacts; source: Tni insect cells (baculovirus), purified as part of CST; not shown: His6, N-terminal, cleaved; MBP, N-terminal, cleaved

Holding throughout (conditions): both partners purified
The target in assay [1] is B2. Put plainly: cross-linking; CX-MS of the SEC-reconstituted CST–POLA1^N complex with BS3 (0.35–0.75 mM, 25 °C, 30 min), 1 mg/mL.
In assay [2] the target is T1, CTC1–STN1–TEN1 (CST) complex (human, UniProt Q2NKJ3 1-1217; Q9H668 1-368; Q86WV5 1-123).
T1 construct: human CTC1; human STN1; human TEN1; Expressed from pBIG1a(His6-MBP-PreSc-CTC1/STN1/TEN1); tag removed with rhinovirus 3C protease; source: Tni insect cells (baculovirus), purified (Ni-NTA, 3C protease cleavage, heparin, SEC); not shown: His6, N-terminal, cleaved; MBP, N-terminal, cleaved; copies: + +
The experiment in a line: SEC; purified proteins mixed (PP^FL and CST equimolar; CST with twofold molar excess of His6-MBP-POLA1^N), 1 h at 4 °C, HiLoad Superdex 200 16/600 PG, 20 mM HEPES pH 7.5, 150 mM NaCl, 0.5 mM TCEP, 5% glycerol.

Assay [3] has as its target T2, POLA1^FL (subunit of PP^FL) (human, UniProt P09884 1-1462).
T2 construct: the POLA1 chain of m3; Always present with POLA2, PRIM1 and PRIM2; written alone for subunit-to-subunit cross-links; source: Tni insect cells (baculovirus), purified as part of PP^FL
T2 sequence (looked up): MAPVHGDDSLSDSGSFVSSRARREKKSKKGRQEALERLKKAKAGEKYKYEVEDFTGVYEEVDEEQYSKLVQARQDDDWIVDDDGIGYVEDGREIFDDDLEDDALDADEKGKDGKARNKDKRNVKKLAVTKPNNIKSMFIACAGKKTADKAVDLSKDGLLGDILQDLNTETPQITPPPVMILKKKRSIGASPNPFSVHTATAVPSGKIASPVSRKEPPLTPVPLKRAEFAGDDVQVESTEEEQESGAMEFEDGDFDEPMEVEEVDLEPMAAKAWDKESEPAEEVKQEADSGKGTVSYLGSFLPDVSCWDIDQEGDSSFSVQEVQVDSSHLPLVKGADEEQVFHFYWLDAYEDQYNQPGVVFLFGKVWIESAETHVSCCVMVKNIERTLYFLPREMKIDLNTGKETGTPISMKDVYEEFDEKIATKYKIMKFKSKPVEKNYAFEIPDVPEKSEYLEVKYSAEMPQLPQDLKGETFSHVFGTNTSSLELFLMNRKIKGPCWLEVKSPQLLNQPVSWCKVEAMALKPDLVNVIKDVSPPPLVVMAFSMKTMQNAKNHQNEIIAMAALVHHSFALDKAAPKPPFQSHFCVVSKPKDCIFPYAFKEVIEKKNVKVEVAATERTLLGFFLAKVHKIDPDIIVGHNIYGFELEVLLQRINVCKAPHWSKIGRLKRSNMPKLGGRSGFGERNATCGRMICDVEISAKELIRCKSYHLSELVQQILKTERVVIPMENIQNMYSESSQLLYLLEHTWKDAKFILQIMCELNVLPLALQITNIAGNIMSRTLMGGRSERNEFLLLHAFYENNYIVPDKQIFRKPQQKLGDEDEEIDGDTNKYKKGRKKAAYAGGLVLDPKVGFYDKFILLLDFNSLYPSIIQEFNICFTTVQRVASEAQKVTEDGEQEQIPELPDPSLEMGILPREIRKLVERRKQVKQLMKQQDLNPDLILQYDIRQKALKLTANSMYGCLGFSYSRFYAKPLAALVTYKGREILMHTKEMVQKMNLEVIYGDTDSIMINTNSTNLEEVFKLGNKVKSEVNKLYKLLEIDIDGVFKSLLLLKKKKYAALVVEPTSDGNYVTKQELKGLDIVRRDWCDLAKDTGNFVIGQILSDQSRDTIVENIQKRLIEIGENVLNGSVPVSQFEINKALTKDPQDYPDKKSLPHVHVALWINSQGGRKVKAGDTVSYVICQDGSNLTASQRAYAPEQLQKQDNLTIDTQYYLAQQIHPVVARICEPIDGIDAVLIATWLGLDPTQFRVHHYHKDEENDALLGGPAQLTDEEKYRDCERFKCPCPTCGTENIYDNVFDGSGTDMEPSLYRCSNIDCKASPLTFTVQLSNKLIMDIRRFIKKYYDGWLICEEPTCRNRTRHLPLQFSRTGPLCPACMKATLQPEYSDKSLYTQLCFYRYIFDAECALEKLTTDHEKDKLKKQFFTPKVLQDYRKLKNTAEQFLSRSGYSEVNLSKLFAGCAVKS
Put plainly: cross-linking; CX-MS of the SEC-reconstituted CST–PP^FL complex with DSS (0.35–0.75 mM, 25 °C, 30 min), 1 mg/mL.

T1 sequence (Q9H668 whole entry, chain 2 of 2): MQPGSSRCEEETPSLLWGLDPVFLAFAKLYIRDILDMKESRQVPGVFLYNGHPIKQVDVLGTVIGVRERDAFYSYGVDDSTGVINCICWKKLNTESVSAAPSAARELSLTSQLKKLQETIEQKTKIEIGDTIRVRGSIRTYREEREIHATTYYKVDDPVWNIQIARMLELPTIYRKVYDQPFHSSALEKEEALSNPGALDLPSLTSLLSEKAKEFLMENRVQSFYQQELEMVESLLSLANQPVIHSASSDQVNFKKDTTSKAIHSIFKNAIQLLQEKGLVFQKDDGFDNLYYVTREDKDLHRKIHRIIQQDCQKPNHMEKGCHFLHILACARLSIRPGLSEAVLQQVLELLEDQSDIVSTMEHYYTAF
T1 sequence (Q86WV5 whole entry, chain 3 of 2): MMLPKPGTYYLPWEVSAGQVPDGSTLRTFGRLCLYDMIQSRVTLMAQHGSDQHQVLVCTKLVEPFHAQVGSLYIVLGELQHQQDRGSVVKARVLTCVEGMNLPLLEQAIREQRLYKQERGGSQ

B1: His6-MBP-PreSc-POLA1^N (domain or fragment, human, UniProt P09884 1-339, looked up)
chain: MAPVHGDDSLSDSGSFVSSRARREKKSKKGRQEALERLKKAKAGEKYKYEVEDFTGVYEEVDEEQYSKLVQARQDDDWIVDDDGIGYVEDGREIFDDDLEDDALDADEKGKDGKARNKDKRNVKKLAVTKPNNIKSMFIACAGKKTADKAVDLSKDGLLGDILQDLNTETPQITPPPVMILKKKRSIGASPNPFSVHTATAVPSGKIASPVSRKEPPLTPVPLKRAEFAGDDVQVESTEEEQESGAMEFEDGDFDEPMEVEEVDLEPMAAKAWDKESEPAEEVKQEADSGKGTVSYLGSFLPDVSCWDIDQEGDSSFSVQEVQVDSSHLPLVKGADEEQ
notes: human POLA1 N-terminal region, POLA1^N, 1–339 aa in the methods (1–335 aa in the results); MBP served as a mass label in negative-stain EM; also called MBP-POLA1^N; MBP-tagged POLA1^N; source: Tni insect cells (baculovirus), purified (Ni-NTA, SEC); not shown: His6, N-terminal, kept; MBP, N-terminal, kept
For the molecule B1, the binding result in assay [1] and in assay [2] was “binds” throughout.

Consider B2, for which the binding result in assay [3] is recorded as “binds”.
